# Laboratory results published in patent US8969060B2, “Modified glucose dehydrogenase” (Ikeda Food Research Co., Ltd., priority 2011, dated 2015).
# Experiments:
# [1] = Relative enzymatic activity of GLD (DCIP/1-m-PMS, plate reader, yeast culture supernatant) with 1,10-phenanthroline present; format: biochemical; conditions: site-specific mutants, inhibitor final concentration 1 mM
# Experimental: (§1) The susceptibility defined in the present specification is evaluated in terms of a relative activity that is determined in a system wherein the inhibitor coexists or not. The relative activity is derived from a relative value (%) of an enzymatic activity (a sample value) obtained with the addition of the inhibitor in the determination of the enzymatic activity described in the present specification as compared with an enzymatic activity (a blank value) as “100%” obtained without the addition of the inhibitor in the same determination. Thus, the higher the relative activity is, the less the susceptibility to the inhibitor is (or the more the susceptibility to the inhibitor is reduced), vice versa.
# (§2) The enzymatic activity is determined in the following manner in Examples 3 and 6 wherein a plate reader (Japan Molecular Device Corporation, SpectraMax Plus384) is used. Thus, culture supernatant that had been diluted in advance with an appropriate magnification is added to a 96-well microplate with an amount of 100 μl per well. A reagent for the determination of the enzymatic activity comprising phosphate buffer (pH 7.0), 1.0 M D-glucose, 3 mM DCIP, 3 mM 1-m-PMS and methanol with a volume ratio of 0.1:1:0.14:0.2:0.06 is added to the 96-well microplate with an amount of 100 μl per well, and a change in the absorbance of DCIP at 600 nm (ΔABS/min) is then determined. The enzymatic activity can be calculated by conversion in proportion to a change in the absorbance of an enzyme solution for which the enzymatic activity has already been known by the above-mentioned activity determination procedure using the spectrophotometer.
# (§3) In the following examples, a value of the enzymatic activity determined by the spectrometer or plate reader using the above reagent composition is considered as a blank value. On the other hand, a sample value is determined using a methanol solution comprising the inhibitor such as 1,10-phenanthroline or proflavin hydrochloride at a final concentration of 1 mM instead of the methanol. Enzymatic activity (unit/mL)=(−ΔABS/16.3)×3.0/0.05×(Dilution ratio of enzyme) [Equation 1]
# Into each well of a 96-well microplate (manufactured by Nunc, Inc.), a YPD medium containing 125 μL of 1.0% (w/v) yeast extract (manufactured by BD), 2.0% (w/v) tryptone (manufactured by BD), 2.0% (w/v) glucose (manufactured by Wako Pure Chemical Industries, Ltd.) was dispensed, and the transformant colonies obtained in Example 2 were inoculated thereinto one by one.
# After shaking culture at 30° C. and 1,000 rpm for 24 hours, the culture mixture was centrifuged and the supernatant was collected.
# According to the above-mentioned method for the determination of enzymatic activity, a blank value and a sample value were determined using a plate reader, and the relative activity (%) was obtained by dividing the sample value by the blank value.
# [2] = Relative enzymatic activity of GLD (DCIP/1-m-PMS, plate reader, yeast culture supernatant) with proflavin hydrochloride present; format: biochemical; conditions: site-specific mutants, inhibitor final concentration 1 mM
# Experimental: as §1, §2, §3
Molecule,"Relative Activity [%] 1,10-Phenanthroline [1] [%]",Relative Activity [%] Proflavin hydrochloride [2] [%]
"H341R: modified GLD: SEQ ID NO: 1 with substitution H341R (protein, listed as Aspergillus terreus, SIGNAL (1)..(19)) MLGKLSFLSALSLAVAAPLSNSTSAKYDYIVIGGGTSGLAVANRLSEDPNVNVLILEAGGSVWNNPNVTNVDGYGLAFGSDIDWQYQSVNQPYGGNLSQVLRAGKALGGTSTINGMAYTRAEDVQIDAWETIGNTGWTWKNLFPYYRKSENFTVPTKSQTSLGASYEAGAHGHEGPLDVAFTQIESNNLTTYLNRTFQGMGLPWTEDVNGGKMRGFNLYPSTVNLEEYVREDAARAYYWPYKSRPNLHVLLNTFANRIVWDGEAHDGHITASGVEITSRNGTVRVINAEKEVIVSAGALKSPAILELSGIGNPSVLDKHNIPVKVNLPTVGENLQDQVNSRMDASGNTSISGTKAVSYPDVYDVFGDEAESVAKQIRANLKQYAADTAKANGNIMKAADLERLFEVQYDLIFKGRVPIAEVLNYPGSATSVFAEFWALLPFARGSVHIGSSNPAEFPVINPNYFMLDWDAKSYVAVAKYIRRSFESYPLSSIVKESTPGYDVIPRNASEQSWKEWVFDKNYRSNFHPVGTAAMMPREIGGVVDERLNVYGTTNVRVVDASVLPFQVCGHLVSTLYAVAERAADLIKADAGRR",78.6,69.5
"D343F: modified GLD: SEQ ID NO: 1 with substitution D343F (protein, listed as Aspergillus terreus, SIGNAL (1)..(19)) MLGKLSFLSALSLAVAAPLSNSTSAKYDYIVIGGGTSGLAVANRLSEDPNVNVLILEAGGSVWNNPNVTNVDGYGLAFGSDIDWQYQSVNQPYGGNLSQVLRAGKALGGTSTINGMAYTRAEDVQIDAWETIGNTGWTWKNLFPYYRKSENFTVPTKSQTSLGASYEAGAHGHEGPLDVAFTQIESNNLTTYLNRTFQGMGLPWTEDVNGGKMRGFNLYPSTVNLEEYVREDAARAYYWPYKSRPNLHVLLNTFANRIVWDGEAHDGHITASGVEITSRNGTVRVINAEKEVIVSAGALKSPAILELSGIGNPSVLDKHNIPVKVNLPTVGENLQDQVNSHMFASGNTSISGTKAVSYPDVYDVFGDEAESVAKQIRANLKQYAADTAKANGNIMKAADLERLFEVQYDLIFKGRVPIAEVLNYPGSATSVFAEFWALLPFARGSVHIGSSNPAEFPVINPNYFMLDWDAKSYVAVAKYIRRSFESYPLSSIVKESTPGYDVIPRNASEQSWKEWVFDKNYRSNFHPVGTAAMMPREIGGVVDERLNVYGTTNVRVVDASVLPFQVCGHLVSTLYAVAERAADLIKADAGRR",95.3,65.7
"D343E: modified GLD: SEQ ID NO: 1 with substitution D343E (protein, listed as Aspergillus terreus, SIGNAL (1)..(19)) MLGKLSFLSALSLAVAAPLSNSTSAKYDYIVIGGGTSGLAVANRLSEDPNVNVLILEAGGSVWNNPNVTNVDGYGLAFGSDIDWQYQSVNQPYGGNLSQVLRAGKALGGTSTINGMAYTRAEDVQIDAWETIGNTGWTWKNLFPYYRKSENFTVPTKSQTSLGASYEAGAHGHEGPLDVAFTQIESNNLTTYLNRTFQGMGLPWTEDVNGGKMRGFNLYPSTVNLEEYVREDAARAYYWPYKSRPNLHVLLNTFANRIVWDGEAHDGHITASGVEITSRNGTVRVINAEKEVIVSAGALKSPAILELSGIGNPSVLDKHNIPVKVNLPTVGENLQDQVNSHMEASGNTSISGTKAVSYPDVYDVFGDEAESVAKQIRANLKQYAADTAKANGNIMKAADLERLFEVQYDLIFKGRVPIAEVLNYPGSATSVFAEFWALLPFARGSVHIGSSNPAEFPVINPNYFMLDWDAKSYVAVAKYIRRSFESYPLSSIVKESTPGYDVIPRNASEQSWKEWVFDKNYRSNFHPVGTAAMMPREIGGVVDERLNVYGTTNVRVVDASVLPFQVCGHLVSTLYAVAERAADLIKADAGRR",61.4,58.2
"D343A: modified GLD: SEQ ID NO: 1 with substitution D343A (protein, listed as Aspergillus terreus, SIGNAL (1)..(19)) MLGKLSFLSALSLAVAAPLSNSTSAKYDYIVIGGGTSGLAVANRLSEDPNVNVLILEAGGSVWNNPNVTNVDGYGLAFGSDIDWQYQSVNQPYGGNLSQVLRAGKALGGTSTINGMAYTRAEDVQIDAWETIGNTGWTWKNLFPYYRKSENFTVPTKSQTSLGASYEAGAHGHEGPLDVAFTQIESNNLTTYLNRTFQGMGLPWTEDVNGGKMRGFNLYPSTVNLEEYVREDAARAYYWPYKSRPNLHVLLNTFANRIVWDGEAHDGHITASGVEITSRNGTVRVINAEKEVIVSAGALKSPAILELSGIGNPSVLDKHNIPVKVNLPTVGENLQDQVNSHMAASGNTSISGTKAVSYPDVYDVFGDEAESVAKQIRANLKQYAADTAKANGNIMKAADLERLFEVQYDLIFKGRVPIAEVLNYPGSATSVFAEFWALLPFARGSVHIGSSNPAEFPVINPNYFMLDWDAKSYVAVAKYIRRSFESYPLSSIVKESTPGYDVIPRNASEQSWKEWVFDKNYRSNFHPVGTAAMMPREIGGVVDERLNVYGTTNVRVVDASVLPFQVCGHLVSTLYAVAERAADLIKADAGRR",72.5,51.2
"H341Y: modified GLD: SEQ ID NO: 1 with substitution H341Y (protein, listed as Aspergillus terreus, SIGNAL (1)..(19)) MLGKLSFLSALSLAVAAPLSNSTSAKYDYIVIGGGTSGLAVANRLSEDPNVNVLILEAGGSVWNNPNVTNVDGYGLAFGSDIDWQYQSVNQPYGGNLSQVLRAGKALGGTSTINGMAYTRAEDVQIDAWETIGNTGWTWKNLFPYYRKSENFTVPTKSQTSLGASYEAGAHGHEGPLDVAFTQIESNNLTTYLNRTFQGMGLPWTEDVNGGKMRGFNLYPSTVNLEEYVREDAARAYYWPYKSRPNLHVLLNTFANRIVWDGEAHDGHITASGVEITSRNGTVRVINAEKEVIVSAGALKSPAILELSGIGNPSVLDKHNIPVKVNLPTVGENLQDQVNSYMDASGNTSISGTKAVSYPDVYDVFGDEAESVAKQIRANLKQYAADTAKANGNIMKAADLERLFEVQYDLIFKGRVPIAEVLNYPGSATSVFAEFWALLPFARGSVHIGSSNPAEFPVINPNYFMLDWDAKSYVAVAKYIRRSFESYPLSSIVKESTPGYDVIPRNASEQSWKEWVFDKNYRSNFHPVGTAAMMPREIGGVVDERLNVYGTTNVRVVDASVLPFQVCGHLVSTLYAVAERAADLIKADAGRR",93.6,77.8
"H341V: modified GLD: SEQ ID NO: 1 with substitution H341V (protein, listed as Aspergillus terreus, SIGNAL (1)..(19)) MLGKLSFLSALSLAVAAPLSNSTSAKYDYIVIGGGTSGLAVANRLSEDPNVNVLILEAGGSVWNNPNVTNVDGYGLAFGSDIDWQYQSVNQPYGGNLSQVLRAGKALGGTSTINGMAYTRAEDVQIDAWETIGNTGWTWKNLFPYYRKSENFTVPTKSQTSLGASYEAGAHGHEGPLDVAFTQIESNNLTTYLNRTFQGMGLPWTEDVNGGKMRGFNLYPSTVNLEEYVREDAARAYYWPYKSRPNLHVLLNTFANRIVWDGEAHDGHITASGVEITSRNGTVRVINAEKEVIVSAGALKSPAILELSGIGNPSVLDKHNIPVKVNLPTVGENLQDQVNSVMDASGNTSISGTKAVSYPDVYDVFGDEAESVAKQIRANLKQYAADTAKANGNIMKAADLERLFEVQYDLIFKGRVPIAEVLNYPGSATSVFAEFWALLPFARGSVHIGSSNPAEFPVINPNYFMLDWDAKSYVAVAKYIRRSFESYPLSSIVKESTPGYDVIPRNASEQSWKEWVFDKNYRSNFHPVGTAAMMPREIGGVVDERLNVYGTTNVRVVDASVLPFQVCGHLVSTLYAVAERAADLIKADAGRR",96.1,71.4
"H341S: modified GLD: SEQ ID NO: 1 with substitution H341S (protein, listed as Aspergillus terreus, SIGNAL (1)..(19)) MLGKLSFLSALSLAVAAPLSNSTSAKYDYIVIGGGTSGLAVANRLSEDPNVNVLILEAGGSVWNNPNVTNVDGYGLAFGSDIDWQYQSVNQPYGGNLSQVLRAGKALGGTSTINGMAYTRAEDVQIDAWETIGNTGWTWKNLFPYYRKSENFTVPTKSQTSLGASYEAGAHGHEGPLDVAFTQIESNNLTTYLNRTFQGMGLPWTEDVNGGKMRGFNLYPSTVNLEEYVREDAARAYYWPYKSRPNLHVLLNTFANRIVWDGEAHDGHITASGVEITSRNGTVRVINAEKEVIVSAGALKSPAILELSGIGNPSVLDKHNIPVKVNLPTVGENLQDQVNSSMDASGNTSISGTKAVSYPDVYDVFGDEAESVAKQIRANLKQYAADTAKANGNIMKAADLERLFEVQYDLIFKGRVPIAEVLNYPGSATSVFAEFWALLPFARGSVHIGSSNPAEFPVINPNYFMLDWDAKSYVAVAKYIRRSFESYPLSSIVKESTPGYDVIPRNASEQSWKEWVFDKNYRSNFHPVGTAAMMPREIGGVVDERLNVYGTTNVRVVDASVLPFQVCGHLVSTLYAVAERAADLIKADAGRR",90.4,76.6
